Laboratory results taken from patent US20240218374.

Biological target: Spike S1 & S2 ECD (SARS-CoV-2) (UniProt P0DTC2)
Assay: filter
[1] = Y=Tyr-dU, p=Nap-dC, SB18T0.01, 37 C

For ANNANGNGNNNGANNGNNNGGANG [26874-29_25], the Kd [1] was 1800 pM.
For ANNANGNGNNNGANNGNNNGGANGG [26874-29_23], the Kd [1] was 1600 pM.
Work on “GGANANNANGNGNNNGANNGNNNGGANG [26874-29_21]” yielded a Kd [1] of 2200 pM.
In the case of “GGGACANNANGNGNNNGANNGNNNGGANG [26874-29_127]”, the Kd (c3 (not defined) at 5, other dU Tyr-dU, dC Nap-dC, SB18T0.01, 37 C) is reported as 280 pM.
For “GGGAHANNANGNGNNNGANNGNNNGGANG [26874-29_96]”, the Kd (ThdU at 5, other dU Tyr-dU, dC Nap-dC, SB18T0.01, 37 C) was 270 pM.
“GGGANANHANGNGNNNGANNGNNNGGANG [26874-29_98]” was tested, and the Kd (ThdU at 8, other dU Tyr-dU, dC Nap-dC, SB18T0.01, 37 C) was 220 pM.
With “GGGANANNANGNGHNNGANNGNNNGGANG [26874-29_100]” the Kd (ThdU at 14 as printed (same as _102; position 10 probably meant), other dU Tyr-dU, dC Nap-dC, SB18T0.01, 37 C) was 490 pM.
With “GGGANANNANGNGHNNGANNGNNNGGANG [26874-29_102]” the Kd (ThdU at 14, other dU Tyr-dU, dC Nap-dC, SB18T0.01, 37 C) was 450 pM.
For “GGGANANNANGNGNNNGANNGNHNGGANG [26874-29_104]”, the Kd (ThdU at 23, other dU Tyr-dU, dC Nap-dC, SB18T0.01, 37 C) was 590 pM.
“GGGANANNANGNGNNNGANNGNNNGGANG [26874-29_47]” gave a Kd (NapdU at 5, other dU Tyr-dU, dC Nap-dC, SB18T0.01, 37 C) of 310 pM.
“GGGANANNANGNGNNNGANNGNNNGGANG [26874-29_48]” was tested, and the Kd (FBndU at 8, other dU Tyr-dU, dC Nap-dC, SB18T0.01, 37 C) was 260 pM.
“GGGANANNANGNGNNNGANNGNNNGGANG [26874-29_49]” gave a Kd (NapdU at 8, other dU Tyr-dU, dC Nap-dC, SB18T0.01, 37 C) of 400 pM.
For “GGGANANNANGNGNNNGANNGNNNGGANG [26874-29_50]”, the Kd (FBndU at 10, other dU Tyr-dU, dC Nap-dC, SB18T0.01, 37 C) was 310 pM.
Sequence “GGGANANNANGNGNNNGANNGNNNGGANG [26874-29_51]” has a Kd (NapdU at 10, other dU Tyr-dU, dC Nap-dC, SB18T0.01, 37 C) of 360 pM.
For “GGGANANNANGNGNNNGANNGNNNGGANG [26874-29_52]”, the Kd (Y=Tyr-dU, p=Nap-dC, position 14 FBn-dU, Kd/Kd_20 0.27) was 110 pM.
For “GGGANANNANGNGNNNGANNGNNNGGANG [26874-29_53]”, the Kd (NapdU at 14, other dU Tyr-dU, dC Nap-dC, SB18T0.01, 37 C) was 200 pM.
With “GGGANANNANGNGNNNGANNGNNNGGANG [26874-29_54]” the Kd (FBndU at 23, other dU Tyr-dU, dC Nap-dC, SB18T0.01, 37 C) was 210 pM.
“GGGANANNANGNGNNNGANNGNNNGGANG [26874-29_55]” showed a Kd (NapdU at 23, other dU Tyr-dU, dC Nap-dC, SB18T0.01, 37 C) of 250 pM.
Sequence “GGGANANNANGNGNNNGANNGNNNGGANG [26874-29_56]” has a Kd (TrpdU at 5, other dU Tyr-dU, dC Nap-dC, SB18T0.01, 37 C) of 540 pM.
Sequence “GGGANANNANGNGNNNGANNGNNNGGANG [26874-29_57]” has a Kd (BndU at 5, other dU Tyr-dU, dC Nap-dC, SB18T0.01, 37 C) of 210 pM.
“GGGANANNANGNGNNNGANNGNNNGGANG [26874-29_58]” showed a Kd (TrpdU at 8, other dU Tyr-dU, dC Nap-dC, SB18T0.01, 37 C) of 270 pM.
For “GGGANANNANGNGNNNGANNGNNNGGANG [26874-29_59]”, the Kd (BndU at 8, other dU Tyr-dU, dC Nap-dC, SB18T0.01, 37 C) was 180 pM.
Work on “GGGANANNANGNGNNNGANNGNNNGGANG [26874-29_60]” yielded a Kd (Y=Tyr-dU, p=Nap-dC, position 10 Trp-dU, Kd/Kd_20 0.24) of 98 pM.
In the case of “GGGANANNANGNGNNNGANNGNNNGGANG [26874-29_61]”, the Kd (BndU at 10, other dU Tyr-dU, dC Nap-dC, SB18T0.01, 37 C) is reported as 310 pM.
“GGGANANNANGNGNNNGANNGNNNGGANG [26874-29_62]” gave a Kd (Y=Tyr-dU, p=Nap-dC, position 14 Trp-dU, Kd/Kd_20 0.30) of 130 pM.
Work on “GGGANANNANGNGNNNGANNGNNNGGANG [26874-29_63]” yielded a Kd (BndU at 14, other dU Tyr-dU, dC Nap-dC, SB18T0.01, 37 C) of 160 pM.
“GGGANANNANGNGNNNGANNGNNNGGANG [26874-29_64]” gave a Kd (TrpdU at 23, other dU Tyr-dU, dC Nap-dC, SB18T0.01, 37 C) of 270 pM.
Sequence “GGGANANNANGNGNNNGANNGNNNGGANG [26874-29_65]” has a Kd (BndU at 23, other dU Tyr-dU, dC Nap-dC, SB18T0.01, 37 C) of 280 pM.
With “GGGANANNANGNGNNNGANNGNNNGGANG [26874-29_66]” the Kd (PBndU at 5, other dU Tyr-dU, dC Nap-dC, SB18T0.01, 37 C) was 190 pM.
Work on “GGGANANNANGNGNNNGANNGNNNGGANG [26874-29_68]” yielded a Kd (PBndU at 8, other dU Tyr-dU, dC Nap-dC, SB18T0.01, 37 C) of 210 pM.
Sequence “GGGANANNANGNGNNNGANNGNNNGGANG [26874-29_70]” has a Kd (PBndU at 10 (printed sequence lacks Y at 10, F^ in place), other dU Tyr-dU, dC Nap-dC, SB18T0.01, 37 C) of 200 pM.
“GGGANANNANGNGNNNGANNGNNNGGANG [26874-29_72]” showed a Kd (Y=Tyr-dU, p=Nap-dC, position 14 PBn-dU, Kd/Kd_20 0.33) of 140 pM.
“GGGANANNANGNGNNNGANNGNNNGGANG [26874-29_74]” showed a Kd (PBndU at 23, other dU Tyr-dU, dC Nap-dC, low plateau, very faint spots) of 460 pM.
“GGGANANNANGNGNNNGANNGNNNGGANG [26874-29_76]” gave a Kd (NEdU at 5, other dU Tyr-dU, dC Nap-dC, SB18T0.01, 37 C) of 460 pM.
In the case of “GGGANANNANGNGNNNGANNGNNNGGANG [26874-29_77]”, the Kd (Y=Tyr-dU, p=Nap-dC, position 5 PE-dU, Kd/Kd_20 0.32) is reported as 130 pM.
With “GGGANANNANGNGNNNGANNGNNNGGANG [26874-29_78]” the Kd (NEdU at 8, other dU Tyr-dU, dC Nap-dC, SB18T0.01, 37 C) was 240 pM.
Work on “GGGANANNANGNGNNNGANNGNNNGGANG [26874-29_79]” yielded a Kd (PEdU at 8, other dU Tyr-dU, dC Nap-dC, SB18T0.01, 37 C) of 170 pM.
Sequence “GGGANANNANGNGNNNGANNGNNNGGANG [26874-29_80]” has a Kd (NEdU at 10, other dU Tyr-dU, dC Nap-dC, SB18T0.01, 37 C) of 160 pM.
“GGGANANNANGNGNNNGANNGNNNGGANG [26874-29_81]” showed a Kd (PEdU at 10, other dU Tyr-dU, dC Nap-dC, SB18T0.01, 37 C) of 160 pM.
In the case of “GGGANANNANGNGNNNGANNGNNNGGANG [26874-29_82]”, the Kd (NEdU at 14, other dU Tyr-dU, dC Nap-dC, SB18T0.01, 37 C) is reported as 180 pM.
Sequence “GGGANANNANGNGNNNGANNGNNNGGANG [26874-29_83]” has a Kd (PEdU at 14, other dU Tyr-dU, dC Nap-dC, SB18T0.01, 37 C) of 190 pM.
“GGGANANNANGNGNNNGANNGNNNGGANG [26874-29_84]” showed a Kd (NEdU at 23, other dU Tyr-dU, dC Nap-dC, SB18T0.01, 37 C) of 440 pM.
“GGGANANNANGNGNNNGANNGNNNGGANG [26874-29_85]” gave a Kd (PEdU at 23, other dU Tyr-dU, dC Nap-dC, low plateau) of 290 pM.
Work on “GGGANANNANGNGNNNGANNGNNNGGANG [26874-29_86]” yielded a Kd (BFdU at 5, other dU Tyr-dU, dC Nap-dC, SB18T0.01, 37 C) of 210 pM.
In the case of “GGGANANNANGNGNNNGANNGNNNGGANG [26874-29_87]”, the Kd (PPdU at 5, other dU Tyr-dU, dC Nap-dC, SB18T0.01, 37 C) is reported as 250 pM.
“GGGANANNANGNGNNNGANNGNNNGGANG [26874-29_88]” was tested, and the Kd (BFdU at 8, other dU Tyr-dU, dC Nap-dC, SB18T0.01, 37 C) was 190 pM.
In the case of “GGGANANNANGNGNNNGANNGNNNGGANG [26874-29_89]”, the Kd (PPdU at 8, other dU Tyr-dU, dC Nap-dC, SB18T0.01, 37 C) is reported as 200 pM.
With “GGGANANNANGNGNNNGANNGNNNGGANG [26874-29_90]” the Kd (Y=Tyr-dU, p=Nap-dC, position 10 BF-dU, Kd/Kd_20 0.33) was 140 pM.
“GGGANANNANGNGNNNGANNGNNNGGANG [26874-29_91]” gave a Kd (BFdU at 14 (Table 6B says PPdU), other dU Tyr-dU, dC Nap-dC, SB18T0.01, 37 C) of 170 pM.
For “GGGANANNANGNGNNNGANNGNNNGGANG [26874-29_92]”, the Kd (PPdU at 10 (Table 6B says BFdU), other dU Tyr-dU, dC Nap-dC, SB18T0.01, 37 C) was 180 pM.
“GGGANANNANGNGNNNGANNGNNNGGANG [26874-29_93]” gave a Kd (PPdU at 14, other dU Tyr-dU, dC Nap-dC, SB18T0.01, 37 C) of 240 pM.
“GGGANANNANGNGNNNGANNGNNNGGANG [26874-29_94]” showed a Kd (BFdU at 23, other dU Tyr-dU, dC Nap-dC, SB18T0.01, 37 C) of 480 pM.
With “GGGANANNANGNGNNNGANNGNNNGGANG [26874-29_95]” the Kd (PPdU at 23, other dU Tyr-dU, dC Nap-dC, SB18T0.01, 37 C) was 420 pM.
“GGGANANNANGNGNNNGANNGNNNGGANG [26874-29_97]” showed a Kd (ThrdU at 5, other dU Tyr-dU, dC Nap-dC, SB18T0.01, 37 C) of 290 pM.
Sequence “GGGANANNANGNGNNNGANNGNNNGGANG [26874-29_99]” has a Kd (ThrdU at 8, other dU Tyr-dU, dC Nap-dC, SB18T0.01, 37 C) of 240 pM.
With “GGGANANNANGNGNNNGANNGNNNGGANG [26874-29_101]” the Kd (ThrdU at 10, other dU Tyr-dU, dC Nap-dC, SB18T0.01, 37 C) was 360 pM.
Sequence “GGGANANNANGNGNNNGANNGNNNGGANG [26874-29_103]” has a Kd (ThrdU at 14, other dU Tyr-dU, dC Nap-dC, SB18T0.01, 37 C) of 490 pM.
In the case of “GGGANANNANGNGNNNGANNGNNNGGANG [26874-29_105]”, the Kd (ThrdU at 23, other dU Tyr-dU, dC Nap-dC, SB18T0.01, 37 C) is reported as 790 pM.
“GGGANANNANGNGNNNGANNGNNNGGANG [26874-29_106]” gave a Kd (MOEdU at 5, other dU Tyr-dU, dC Nap-dC, SB18T0.01, 37 C) of 660 pM.
Sequence “GGGANANNANGNGNNNGANNGNNNGGANG [26874-29_107]” has a Kd (2NapdU at 5, other dU Tyr-dU, dC Nap-dC, SB18T0.01, 37 C) of 490 pM.
“GGGANANNANGNGNNNGANNGNNNGGANG [26874-29_108]” was tested, and the Kd (MOEdU at 8, other dU Tyr-dU, dC Nap-dC, SB18T0.01, 37 C) was 720 pM.
Work on “GGGANANNANGNGNNNGANNGNNNGGANG [26874-29_109]” yielded a Kd (2NapdU at 8, other dU Tyr-dU, dC Nap-dC, SB18T0.01, 37 C) of 480 pM.
“GGGANANNANGNGNNNGANNGNNNGGANG [26874-29_110]” showed a Kd (MOEdU at 10, other dU Tyr-dU, dC Nap-dC, SB18T0.01, 37 C) of 430 pM.
